Where a chain is given by its changes, count along the chain named. Names and notes keep the numbering of the source.
B1: T99P: nnLuz luciferase variant with single amino acid substitution T99P (protein, UniProt A0A3G9JYH7 1-267, looked up, variant T99P)
Luciferase: MRINISLSSLFERLSKLSSRSIAITCGVVLASAIAFPIIRRDYQTFLEVGPSYAPQNFRGYIIVCVLSLFRQEQKGLAIYDRLPEKRRWLADLPFREGPRPSITSHIIQRQRTQLVDQEFATRELIDKVIPRVQARHTDKTFLSTSKFEFHAKAIFLLPSIPINDPLNIPSHDTVRRTKREIAHMHDYHDCTLHLALAAQDGKEVLKKGWGQRHPLAGPGVPGPPTEWTFLYAPRNEEEARVVEMIVEASIGYMTNDPAGKIVENAK
B2: T192S: nnLuz luciferase variant with single amino acid substitution T192S (protein, listed as Neonothopanus nambi)
chain: B1 Luciferase with P99T, T192S
B3: nnLuz_WT: parental luciferase derived from Neonothopanus nambi (SEQ ID NO: 1) (protein, listed as Neonothopanus nambi)
chain: B1 Luciferase with P99T
B4: A199P: nnLuz luciferase variant with single amino acid substitution A199P (protein, listed as Neonothopanus nambi)
chain: B1 Luciferase with P99T, A199P
B5: D37E: nnH3H hispidin hydroxylase variant with single substitution D37E (protein, listed as Neonothopanus nambi)
chain: MASFENSLSVLIVGAGLGGLAAAIALRRQGHVVKIYESSSFKAELGAGLAVPPNTLRSLQQLGCNTENLNGVDNLCFTAMGYDGSVGMMNNMTDYREAYGTSWIMVHRVDLHNELMRVALDPGGLGPPATLHLNHRVTFCDVDACTVTFTNGTTQSADLIVGADGIRSTIRRFVLEEDVTVPASGIVGFRWLVQADALDPYPELDWIVKKPPLGARLISTPQNPQSGVGLADRRTIIIYACRGGTMVNVLAVHDDERDQNTADWSVPASKDDLFRVFHDYHPRFRRLLELAQDINLWQMRVVPVLKKWVNKRVCLLGDAAHASLPTLGQGFGMGLEDAVALGTLLPKGTTASQIETRLAVYEQLRKDRAEFVAAESYEEQYVPEMRGLYLRSKELRDRVMGYDIKVESEKVLETLLRSSNSA
B6: A183P: nnH3H hispidin hydroxylase variant with single substitution A183P (protein, listed as Neonothopanus nambi)
chain: B5 chain with E37D, A183P
B7: V181I: nnH3H hispidin hydroxylase variant with single substitution V181I (protein, listed as Neonothopanus nambi)
chain: B5 chain with E37D, V181I
B8: S323M: nnH3H hispidin hydroxylase variant with single substitution S323M (protein, listed as Neonothopanus nambi)
chain: B5 chain with E37D, S323M
B9: M385K: nnH3H hispidin hydroxylase variant with single substitution M385K (protein, listed as Neonothopanus nambi)
chain: B5 chain with E37D, M385K

Columns and labels:
[1] = Luciferase luminescence in E. coli lysates after luciferin addition; assay type: biochemical; conditions: 100 μM luciferin, maximal brightness
Excerpt: A library of amino acid substitutions was created applying mutagenesis to a gene encoding the luciferase derived from Neonothopanus nambi (SEQ ID NO: 8). pF4Ag shuttle vector (Promega) was used for gene expression in E. coli (T7 promoter-driven expression) and mammalian cells (CMV promoter-driven expression). The pF4Ag vector backbone introduces a C-terminal 3×-FLAG-HiBiT tag. Site-directed mutagenesis was used to substitute consensus amino acids at selected position in the luciferase sequence. Gene expression was performed in the E. coli strain KRX (Promega), which enables rhamnose-inducible expression of T7 RNA polymerase.
Colonies (in triplicate) were used to inoculate LB broth containing ampicillin ([…]) and cultures grown overnight in 96-well microtiter plates (20 hours, 37° C.). Cultures were diluted into fresh LB containing 0.1% rhamnose and ampicillin and grown for 3 hours at 37° C. 50 μl of the induced culture was lysed for 5 minutes at ambient temperature with a reagent consisting of 25 mM HEPES pH 7.5 and 0.3×PLB (E1941 Promega). 50 μl of lysate was combined with 50 μl luciferin (100 μM) in the lysis buffer and samples were measured for total luminescence using a GloMax®-Multi+luminometer. (Promega).

[2] = Enzyme thermostability in cleared E. coli lysates incubated at 22° C.; assay type: biochemical; conditions: then 100 μM luciferin
Method: To assess the effect on enzyme thermostability by the amino acid substitutions, lysates of transformed E. coli were prepared by sonication and cleared by centrifugation. The cleared lysates were diluted 1:100 into Tris-buffered saline with 0.01% BSA and 0.1% n-dodecyl β-D-maltoside. 100 μl of each diluted lysate were added to a 96-well PCR plate. Samples were incubated at 22° C. and at various time points aliquots were placed on ice. When all of the samples were processed, 50 μl of each was combined with 50 μl of 100 μM luciferin in Tris-buffered saline with 0.01% BSA and 0.1% n-dodecyl β-D-maltoside. Samples were immediately placed in a GloMax®-Multi+luminometer (Promega) to measure bioluminescence.

[3] = test system: yeast cells (P. pastoris); assay: Stability of luciferase within yeast cells after 10 min incubation at different temperatures; assay type: cell-based; conditions: then luciferin
Method: To evaluate stability of nnLuz_WT and nnLuz_v4 within yeast cells, strains expressing nnLuz WT or nnLux_v4 were grown on plates for 24 hours, then resuspended in PBS to final OD (600 nm)=5 and 50 μl was placed in wells of a 96-well PCR plate. Different portions of the plate were incubated at different temperatures for 10 minutes using a gradient thermal cycler. The plate were then placed on ice for 5 minutes and 10 μl of 500 μM luciferin (2% DMSO, 10 mM thioglycolic acid, 0.1% DDM in DPBS) were added to each well. Then 25 μl of suspension from each well was transferred to a black 96-well plate containing 0.2 M sodium phosphate buffer with 0.5 M Na2SO4,pH=8.

HEK293 cells = assay: Hispidin hydroxylase activity in HEK293 cells co-transfected with nnLuz_v3, hispidin added, normalized to HiBiT; assay type: cell-based
Method: A library of amino acid substitutions was created applying mutagenesis to a gene encoding the hispidin hydroxylase derived from Neonothopanus nambi (SEQ ID NO: 12). This was achieved by the same method as described in Example 1. Activity was evaluated in HEK293 cells co-transfected with a gene encoding nnLuz_v3. Bioluminescence was measured as described in Example 1, except with addition of hispidin instead of luciferin.
To estimate specific activity, both luciferase activity and HiBiT were measure for each sample (see Example 2). Activity of each variant was then normalized to the expression level (i.e., luciferase bioluminescence/HiBiT signal). Substitutions at 28 positions were examined by this method.

| Molecule | production of bioluminescence relative to parental nnLuz [1] | enzyme stability relative to unmodified parental luciferase [2] | bioluminescence over parental enzyme nnH3H_WT, normalized to expression level (HiBiT) (HEK293 cells) | also measured |
| --- | --- | --- | --- | --- |
| B1 | significant improvements | more stable | – | – |
| B2 | significant improvements | more stable | – | – |
| B3 | – | – | – | reduction of luminescence after incubation at 40° C. ([3]; 10 min at 40° C.): > 3 fold; reduction of luminescence after incubation at 45° C. ([3]; 10 min at 45° C.): 100 fold |
| B4 | significant improvements | more stable | – | – |
| B5 | – | – | significantly increased bioluminescence | – |
| B6 | – | – | significantly increased bioluminescence | – |
| B7 | – | – | significantly increased bioluminescence | – |
| B8 | – | – | significantly increased bioluminescence | – |
| B9 | – | – | significantly increased bioluminescence | – |

Reference: patent US20250075191A1, “MODIFIED BIOLUMINESCENT ENZYMES” (Light Bio, Inc., priority 2023, published 2025)
